Columns and labels:
[1] = target: T1, C-terminally His-tagged RavA (E. coli, UniProt P31473 1-498); test: BLI; + ATP, KD1 (2:1 heterogeneous ligand model), pH 7.5
[2] = target: T1, C-terminally His-tagged RavA; test: BLI; + ATP, KD2 second site (2:1 heterogeneous ligand model), pH 7.5
[3] = target: T1, C-terminally His-tagged RavA; test: BLI; no nucleotide, pH 7.5
[4] = target: T1, C-terminally His-tagged RavA; test: BLI; + ADP, pH 7.5

T1 sequence (P31473 whole entry): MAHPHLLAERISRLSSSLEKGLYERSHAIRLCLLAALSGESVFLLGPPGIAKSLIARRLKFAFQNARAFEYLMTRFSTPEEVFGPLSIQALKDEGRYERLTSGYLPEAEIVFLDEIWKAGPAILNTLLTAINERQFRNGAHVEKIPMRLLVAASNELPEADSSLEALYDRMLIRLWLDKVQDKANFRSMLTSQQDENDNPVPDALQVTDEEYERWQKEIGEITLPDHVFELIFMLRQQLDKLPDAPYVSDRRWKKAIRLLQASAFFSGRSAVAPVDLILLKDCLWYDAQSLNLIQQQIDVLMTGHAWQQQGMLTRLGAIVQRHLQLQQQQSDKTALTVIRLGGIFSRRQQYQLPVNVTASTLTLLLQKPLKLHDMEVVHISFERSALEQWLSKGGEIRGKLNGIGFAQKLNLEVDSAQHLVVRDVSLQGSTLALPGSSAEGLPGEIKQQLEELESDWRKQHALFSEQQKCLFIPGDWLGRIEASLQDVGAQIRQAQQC

Kd [1]: 13.1 µM | Kd [2]: 4.8 µM | Kd [3]: 33.3 µM | Kd [4]: 12.4 µM
B1: His-NTV-AviTag (domain or fragment)
chain: MLTLDTLNVMLAVSEEGLIEEMIIALLASPQLAVFFEKFPRLKAAITDDVPRWREALRSRLKDARVPPELTEEVMCYQQSQLLSTPQFIVQLPQILDLLHRLNSPWAEQARQLVDANSTITSALHTLFLQRWRLSLIVQATTLNQQLLEEEREQLLSEVQERMTLSGQLEPILADNNTAAGRLWDMSAGQLKRGDYQLIVKYGEFLNEQPELKRLAEQLGRSREAKSIPRNDAQMETFRTMVREPATVPEQVDGLQQSDDILRLLPPELATLGITELEYEFYRRLVEKQLLTYRLHGESWREKVIERPVVHKDYDEQPR
modifications: biotinylated for the BLI binding studies (50 μM D-biotin added to the LB medium during expression)
